Where no end group is shown, it is not given here.
Experiments:
[1] = target: T1, HIV-1 reverse transcriptase, heterodimeric p66/p51 (HIV-1), P03366; assay: RT polymerase inhibition assay, Ki from Dixon plot
[2] = target: T1, HIV-1 reverse transcriptase, …; assay: RT polymerase inhibition assay
HIV-1 integrase (HIV-1) [3] = assay: steady state fluorescence and anisotropy
HIV-1 integrase (HIV-1) [4] = assay: IN 3′ processing inhibition, fluorescence anisotropy
[5] = target: T1, HIV-1 reverse transcriptase, …; assay: RT polymerase inhibition assay, Ki
HIV-1 integrase (HIV-1) [6] = assay: cell-based or functional assay
HIV-1 integrase (HIV-1) [7] = assay: dissociation of the IN/LEDGF complex, AlphaScreen and immunoprecipitation; partner displaced: LEDGF
[8] = target: T2, RT:p/t (HIV-1 RT heterodimer pre-bound to DNA/DNA primer/template) (HIV-1), P03366; assay: steady-state fluorescence titration
[9] = target: T1, HIV-1 reverse transcriptase, …; assay: steady-state fluorescence titration, 200 nM FITC-PAW titrated with RT
[10] = target: T2, RT:p/t (HIV-1 RT heterodimer pre-bound …); assay: steady-state fluorescence titration, 200 nM FITC-PAW titrated with RT:p/t
HIV-1 integrase (HIV-1) [11] = assay: steady-state fluorescence anisotropy, fluorescein-labelled peptide titrated with IN
[12] = target: HA-tagged Integrase (stably expressed in HeLa cells) (HIV-1); assay: cell-based or functional assay
[13] = target: T2, RT:p/t (HIV-1 RT heterodimer pre-bound …); assay: steady-state fluorescence titration, 20 nM RT:FAM-p/t titrated with PAW

Binder: GTKAATEVIPLTEEAE (modifications not checked) [P6]
- Ki [1]: 5.7 µM

Binder: GCKWLTEWIPLTAEAEC (modifications not checked) [PAW-C2]
- Ki [2]: 1400 nM
- Kd (HIV-1 integrase (HIV-1) [3]): 120 nM
- Ki (HIV-1 integrase (HIV-1) [4]): 8 µM

Binder: CGTKWLTEWIPLTAEC (modifications not checked) [P27C1]
- Ki [2]: 42 nM
- Ki (HIV-1 integrase (HIV-1) [4]): > 100 µM

Binder: GTKALAEVIPLTEEAE (modifications not checked) [P7]
- fold reduction in potency against P1 [5]: 2 fold
- Ki [1]: 13.5 µM

Binder: GTKWLTEVWPL (modifications not checked) [P16]
- EC50 (µM) 3′processing (HIV-1 integrase (HIV-1) [6]): 10 µM
- EC50 (µM) IN/DNA binding (HIV-1 integrase (HIV-1) [6]): 8 µM
- EC50 (µM) IN/DNA dissociation (HIV-1 integrase (HIV-1) [6]): 11 µM
- Ki [2]: 14400 nM
- fold reduction in efficiency against PAW [5]: 20 fold
- Kd (HIV-1 integrase (HIV-1) [3]): 120 nM
- Ki [1]: 14 µM
- Ki (HIV-1 integrase (HIV-1) [4]): 10 µM
- EC50 (HIV-1 integrase (HIV-1) [7]): 800 nM

Binder: ATKALTEVIPLTEEAE (modifications not checked) [P2]
- Ki [1]: 28 µM

Binder: GTKALTEVAPLTEEAE (modifications not checked) [P10]
- Ki [1]: 7.3 µM

Binder: GTKAWTEVWPL (modifications not checked) [P17]
- fold reduction in efficiency against PAW [5]: 50 fold
- Ki [1]: 35 µM

Binder: GTKGLTEVIPLTEEAE (modifications not checked) [P5]
- fold reduction in potency against P1 [5]: 2.7 fold
- Ki [1]: 20 µM

Binder: GTAALTEVIPLTEEAE (modifications not checked) [P4]
- fold reduction in potency against P1 [5]: 2 fold
- Ki [1]: 15 µM

Binder: GTKAATEVIPLT (modifications not checked) [P19]
- Ki [1]: 49 µM

Binder: GTKWLTEWIPLTAE (modifications not checked) [P27]
- EC50 (µM) 3′processing (HIV-1 integrase (HIV-1) [6]): > 100 µM
- EC50 (µM) IN/DNA binding (HIV-1 integrase (HIV-1) [6]): > 100 µM
- EC50 (µM) IN/DNA dissociation (HIV-1 integrase (HIV-1) [6]): > 100 µM
- Ki [2]: 50 nM
- fold increase in efficiency against PAW [5]: 14 fold
- Kd (HIV-1 integrase (HIV-1) [3]): > 100000 nM
- Ki [1]: 0.05 µM
- Ki (HIV-1 integrase (HIV-1) [4]): > 100 µM

Binder: GTKWLTEWIPLTAEAEC (not fully specified) [PAW-FITC]
- IC50 3′-proc (gel electrophoresis) (HIV-1 integrase (HIV-1) [6]): 10 µM
- fold greater Ki than PAW [5]: 3.8 fold
- fold increase in affinity against RT without p/t [8]: 5 fold
- fold lower Kd than unlabelled PAW [8]: 5.6 fold
- Ki [1]: 2.7 µM
- Kd [9]: 33 nM
- quenching of FITC-PAW fluorescence [9]: 39%
- Kd [10]: 7.1 nM
- quenching of FITC-PAW fluorescence [10]: 57%
- Kd (HIV-1 integrase (HIV-1) [11]): 400 nM
- Δr (change of steady-state anisotropy) (HIV-1 integrase (HIV-1) [11]): 0.06

Binder: KWLTEWIPLTAE (modifications not checked) [P29]
- Ki [1]: 1 µM

Binder: GTKALTEVIPLAEEAE (modifications not checked) [P13]
- Ki [1]: 10.2 µM

Binder: GTKWLTEWIPL (modifications not checked) [P24]
- EC50 (µM) 3′processing (HIV-1 integrase (HIV-1) [6]): 33 µM
- EC50 (µM) IN/DNA binding (HIV-1 integrase (HIV-1) [6]): 35 µM
- EC50 (µM) IN/DNA dissociation (HIV-1 integrase (HIV-1) [6]): 21 µM
- Kd (HIV-1 integrase (HIV-1) [3]): 350 nM
- Ki [1]: 0.7 µM
- EC50 (HIV-1 integrase (HIV-1) [7]): 13000 nM

Binder: CGTKWLTEVWPLC (modifications not checked) [P16C1]
- Ki [2]: 32100 nM
- Kd (HIV-1 integrase (HIV-1) [3]): 90 nM
- Ki (HIV-1 integrase (HIV-1) [4]): 4.3 µM

Binder: GTKALTAVIPLTEEAE (modifications not checked) [P8]
- fold reduction in efficiency against P1 [5]: 8 fold
- Ki [1]: 57 µM

Binder: KWLTEWIPLTAEAE (modifications not checked) [P26]
- EC50 (µM) 3′processing (HIV-1 integrase (HIV-1) [6]): 28 µM
- EC50 (µM) IN/DNA binding (HIV-1 integrase (HIV-1) [6]): 54 µM
- EC50 (µM) IN/DNA dissociation (HIV-1 integrase (HIV-1) [6]): 67 µM
- fold reduction in efficiency against PAW [5]: 2.5 fold
- Kd (HIV-1 integrase (HIV-1) [3]): 320 nM
- Ki [1]: 1.8 µM
- EC50 (HIV-1 integrase (HIV-1) [7]): > 50000 nM

Binder: GAKTETLVIPETELEA (modifications not checked) [Pscramble]
- Ki [1]: 61 µM

Binder: GTKALTEVIPLT (modifications not checked) [P18]
- Ki [1]: 53 µM

Binder: GTKWLTEWIPLTAEAE (modifications not checked) [PAW]
- IN half-life (cycloheximide treatment, 1 µM PAW) [12]: 17 min
- integrase located in the nucleus (High Content Screening, HeLa cells) [12]: 35%
- EC50 (µM) 3′processing (HIV-1 integrase (HIV-1) [6]): 12 µM
- EC50 (µM) IN/DNA binding (HIV-1 integrase (HIV-1) [6]): 10 µM
- EC50 (µM) IN/DNA dissociation (HIV-1 integrase (HIV-1) [6]): 15 µM
- IC50 3′-proc (HIV-1 integrase (HIV-1) [6]): 12.7 µM
- Ki [2]: 700 nM
- fold improvement in efficiency over P6 [5]: 10 fold
- fold improvement in efficiency over Pep-A [5]: 50 fold
- Kd (HIV-1 integrase (HIV-1) [3]): 230 nM
- Ki [1]: 0.7 µM
- Ki (HIV-1 integrase (HIV-1) [4]): 12 µM
- Kd [13]: 40 nM
- quenching of fluorescence of FAM-labelled p/t [13]: 39%
- EC50 (HIV-1 integrase (HIV-1) [7]): 2000 nM

Binder: GTKALTEAIPLTEEAE (modifications not checked) [P9]
- fold reduction in potency against P1 [5]: 2 fold
- Ki [1]: 15 µM

Binder: RGTKALTEVIPLTEEAE (modifications not checked) [Pep-A]
- Ki [1]: 35 µM

Binder: GTKALTEVIALTEEAE (modifications not checked) [P11]
- Ki [1]: 7 µM

Binder: GTKALTEVIPLTEEAE (modifications not checked) [P1]
- fold increase in potency against Pep-A [5]: 5 fold
- Ki [1]: 7.5 µM

Binder: CGTKWLTEWIPLTAEAEC (modifications not checked) [PAW-C1]
- Ki [2]: 200 nM
- Kd (HIV-1 integrase (HIV-1) [3]): 290 nM
- Ki (HIV-1 integrase (HIV-1) [4]): 21 µM

Binder: GTKALTEVIPATEEAE (modifications not checked) [P12]
- Ki [1]: 22 µM

Binder: GTKWATEWAPLTAEAE (modifications not checked) [P28]
- Ki [1]: 2 µM

From US20110294728A1, “Antiviral Polypeptides” (priority 2008, published 2011)
